The record followed here is the supplement of paper PMC9112550, “Optimization of the antimicrobial peptide Bac7 by deep mutational scanning” (BMC Biology, 2022).
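Note: peptides expressed intracellularly from a pBAD plasmid library in pooled LB shake-flask culture, induced with 0.3% L-arabinose, DNA abundance read by NGS, three biological replicates, DESeq2 with apeglm shrinkage.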

The data set has as its system Escherichia coli TOP10. In words: shrunken log2 fold change of peptide-encoding DNA abundance (4.5 h post-induction vs induction); higher = less antimicrobial activity (less host growth inhibition). The following applies: time post-induction: 4.5 h; library: site-saturation at positions 5, 18, 19, 20.
Consider RRIRCRPPRLPRPRPRPERHPRP, for which the “shrunken log2 fold change” value is -0.0311.

As for RRIRQRPPRLPRPRPRPTLMPRP, the “shrunken log2 fold change” value was found to be 0.369.

For the sequence RRIRQRPPRLPRPRPRPMEFPRP, the “shrunken log2 fold change” value was determined as 0.0663.

With RRIRTRPPRLPRPRPRPGQKPRP, the “shrunken log2 fold change” value is 0.0923.

For RRIRSRPPRLPRPRPRPMSFPRP, the “shrunken log2 fold change” value was -0.374.

On to RRIRFRPPRLPRPRPRPFTLPRP, for which the “shrunken log2 fold change” value came out at 0.0331.

As for RRIRKRPPRLPRPRPRPEAEPRP, the “shrunken log2 fold change” value worked out at 3.31.

For RRIRDRPPRLPRPRPRPEFNPRP, the “shrunken log2 fold change” value stood at 0.574.

RRIRCRPPRLPRPRPRPYFFPRP: the “shrunken log2 fold change” value was -0.614.

For the sequence RRIRKRPPRLPRPRPRPECNPRP, the “shrunken log2 fold change” value is 0.0503.

Regarding RRIRPRPPRLPRPRPRPRTMPRP, the “shrunken log2 fold change” value turned out to be 0.276.

Regarding RRIRERPPRLPRPRPRPMKLPRP, the “shrunken log2 fold change” value is -0.0902.

Take RRIRCRPPRLPRPRPRPAQHPRP: the “shrunken log2 fold change” value stood at 0.0537.

As to RRIRLRPPRLPRPRPRPAKDPRP, the “shrunken log2 fold change” value is -0.136.

For RRIRPRPPRLPRPRPRPFVEPRP, the “shrunken log2 fold change” value is -0.0706.

On to RRIRARPPRLPRPRPRPTFMPRP, for which the “shrunken log2 fold change” value was determined as 0.106.

Turning to RRIRMRPPRLPRPRPRPLPYPRP, the “shrunken log2 fold change” value is 0.0635.

As for RRIRPRPPRLPRPRPRPNHCPRP, the “shrunken log2 fold change” value is -1.08.

RRIRNRPPRLPRPRPRPCCYPRP: the “shrunken log2 fold change” value was -0.0141.

For the sequence RRIRWRPPRLPRPRPRPPYQPRP, the “shrunken log2 fold change” value is -0.172.

On to RRIRVRPPRLPRPRPRPASIPRP, for which the “shrunken log2 fold change” value was -0.437.

In the case of RRIRHRPPRLPRPRPRPCRYPRP, the “shrunken log2 fold change” value was -0.0657.

Consider RRIRERPPRLPRPRPRPKTMPRP, for which the “shrunken log2 fold change” value was -0.293.

Take RRIRLRPPRLPRPRPRPSQIPRP: the “shrunken log2 fold change” value was found to be 0.0199.

Consider RRIRYRPPRLPRPRPRPQIPPRP, for which the “shrunken log2 fold change” value is -0.17.

For RRIRERPPRLPRPRPRPMDDPRP, the “shrunken log2 fold change” value was -0.015.

Take RRIRMRPPRLPRPRPRPHNDPRP: the “shrunken log2 fold change” value turned out to be 0.00915.

As to RRIRSRPPRLPRPRPRPVWDPRP, the “shrunken log2 fold change” value is -0.143.

Turning to RRIRNRPPRLPRPRPRPEYFPRP, the “shrunken log2 fold change” value was -0.0135.

As for RRIRSRPPRLPRPRPRPGRFPRP, the “shrunken log2 fold change” value is 0.406.

As for RRIRLRPPRLPRPRPRPQPFPRP, the “shrunken log2 fold change” value is -1.07.

With RRIRCRPPRLPRPRPRPTRVPRP, the “shrunken log2 fold change” value is 0.547.

On to RRIRTRPPRLPRPRPRPRAHPRP, for which the “shrunken log2 fold change” value is -0.186.

For RRIRPRPPRLPRPRPRPRIGPRP, the “shrunken log2 fold change” value came out at 0.0981.

Turning to RRIRHRPPRLPRPRPRPALFPRP, the “shrunken log2 fold change” value is -0.0554.

Turning to RRIRYRPPRLPRPRPRPLLVPRP, the “shrunken log2 fold change” value was -0.692.

As to RRIRMRPPRLPRPRPRPDVFPRP, the “shrunken log2 fold change” value was 0.387.

In the case of RRIRYRPPRLPRPRPRPKCGPRP, the “shrunken log2 fold change” value was determined as 0.0111.

In the case of RRIRDRPPRLPRPRPRPWRMPRP, the “shrunken log2 fold change” value is -0.397.

With RRIRKRPPRLPRPRPRPRHQPRP, the “shrunken log2 fold change” value worked out at 1.82.

On to RRIRCRPPRLPRPRPRPHPSPRP, for which the “shrunken log2 fold change” value is -0.00515.

Take RRIRVRPPRLPRPRPRPPHVPRP: the “shrunken log2 fold change” value was 0.283.

Turning to RRIRTRPPRLPRPRPRPRLTPRP, the “shrunken log2 fold change” value was -0.00933.

On to RRIRCRPPRLPRPRPRPMKAPRP, for which the “shrunken log2 fold change” value is -0.173.

On to RRIRLRPPRLPRPRPRPREGPRP, for which the “shrunken log2 fold change” value came to 0.966.

As to RRIRVRPPRLPRPRPRPSDKPRP, the “shrunken log2 fold change” value was -0.153.

As for RRIRRRPPRLPRPRPRPHIVPRP, the “shrunken log2 fold change” value is -0.0515.

Regarding RRIRWRPPRLPRPRPRPADHPRP, the “shrunken log2 fold change” value came out at 0.193.

Turning to RRIRARPPRLPRPRPRPDVPPRP, the “shrunken log2 fold change” value is -0.0329.

RRIRLRPPRLPRPRPRPKKMPRP: the “shrunken log2 fold change” value came out at 0.126.

As for RRIRARPPRLPRPRPRPNVKPRP, the “shrunken log2 fold change” value was -0.167.

Regarding RRIRIRPPRLPRPRPRPMKNPRP, the “shrunken log2 fold change” value is -0.359.

With RRIRWRPPRLPRPRPRPVGVPRP, the “shrunken log2 fold change” value is 0.297.

For the sequence RRIRQRPPRLPRPRPRPKTAPRP, the “shrunken log2 fold change” value was determined as 0.0173.

In the case of RRIRLRPPRLPRPRPRPHIMPRP, the “shrunken log2 fold change” value is -0.531.

RRIRLRPPRLPRPRPRPGTQPRP: the “shrunken log2 fold change” value is -0.0907.

In the case of RRIRWRPPRLPRPRPRPMPNPRP, the “shrunken log2 fold change” value was -0.0767.

On to RRIRIRPPRLPRPRPRPIHPPRP, for which the “shrunken log2 fold change” value is -0.208.

RRIRVRPPRLPRPRPRPNILPRP: the “shrunken log2 fold change” value is -0.426.

RRIRGRPPRLPRPRPRPFTTPRP: the “shrunken log2 fold change” value was found to be 0.0423.

In the case of RRIRWRPPRLPRPRPRPDIRPRP, the “shrunken log2 fold change” value was -0.0808.

As for RRIRRRPPRLPRPRPRPPHQPRP, the “shrunken log2 fold change” value was 1.32.

On to RRIRGRPPRLPRPRPRPVTFPRP, for which the “shrunken log2 fold change” value was 0.172.

Consider RRIRSRPPRLPRPRPRPLFVPRP, for which the “shrunken log2 fold change” value is -0.188.

RRIRNRPPRLPRPRPRPERVPRP: the “shrunken log2 fold change” value was 0.11.

For RRIRSRPPRLPRPRPRPTRIPRP, the “shrunken log2 fold change” value is -0.0163.

As for RRIRDRPPRLPRPRPRPFNWPRP, the “shrunken log2 fold change” value was determined as 0.0464.

For RRIRRRPPRLPRPRPRPCPMPRP, the “shrunken log2 fold change” value is -0.0862.

Take RRIRHRPPRLPRPRPRPPMEPRP: the “shrunken log2 fold change” value was -0.0615.

Consider RRIRCRPPRLPRPRPRPDINPRP, for which the “shrunken log2 fold change” value was -0.294.

Take RRIRIRPPRLPRPRPRPEKEPRP: the “shrunken log2 fold change” value is -0.00237.

RRIRIRPPRLPRPRPRPWGEPRP: the “shrunken log2 fold change” value is -0.0259.

As to RRIRHRPPRLPRPRPRPPVAPRP, the “shrunken log2 fold change” value stood at 0.0782.

Regarding RRIRVRPPRLPRPRPRPDHVPRP, the “shrunken log2 fold change” value is -0.0193.

Consider RRIRKRPPRLPRPRPRPCQFPRP, for which the “shrunken log2 fold change” value was -0.117.

For the sequence RRIRSRPPRLPRPRPRPQWFPRP, the “shrunken log2 fold change” value is -0.241.

Take RRIRCRPPRLPRPRPRPDWNPRP: the “shrunken log2 fold change” value was -0.523.

Regarding RRIRFRPPRLPRPRPRPFNEPRP, the “shrunken log2 fold change” value is -0.322.

RRIRHRPPRLPRPRPRPGMPPRP: the “shrunken log2 fold change” value was 0.47.

On to RRIRHRPPRLPRPRPRPIPQPRP, for which the “shrunken log2 fold change” value is -0.126.

Turning to RRIRVRPPRLPRPRPRPPLIPRP, the “shrunken log2 fold change” value stood at 1.02.

As to RRIRMRPPRLPRPRPRPNNPPRP, the “shrunken log2 fold change” value stood at 0.395.

In the case of RRIRFRPPRLPRPRPRPPIIPRP, the “shrunken log2 fold change” value worked out at 0.92.

On to RRIRWRPPRLPRPRPRPHIHPRP, for which the “shrunken log2 fold change” value is -0.359.

Take RRIRDRPPRLPRPRPRPTAVPRP: the “shrunken log2 fold change” value was found to be 0.421.

Turning to RRIRGRPPRLPRPRPRPRHQPRP, the “shrunken log2 fold change” value amounted to 0.026.

On to RRIRLRPPRLPRPRPRPTPSPRP, for which the “shrunken log2 fold change” value amounted to 0.552.

In the case of RRIRRRPPRLPRPRPRPYAFPRP, the “shrunken log2 fold change” value turned out to be 0.0067.

With RRIRNRPPRLPRPRPRPISNPRP, the “shrunken log2 fold change” value amounted to 0.0351.

With RRIRMRPPRLPRPRPRPDGTPRP, the “shrunken log2 fold change” value worked out at 2.88.

Take RRIRQRPPRLPRPRPRPFYDPRP: the “shrunken log2 fold change” value is -0.208.

In the case of RRIRVRPPRLPRPRPRPVTEPRP, the “shrunken log2 fold change” value was -0.164.

With RRIRSRPPRLPRPRPRPRGSPRP, the “shrunken log2 fold change” value is 0.378.

Consider RRIRMRPPRLPRPRPRPKEKPRP, for which the “shrunken log2 fold change” value stood at 0.0504.

For the sequence RRIRCRPPRLPRPRPRPCQKPRP, the “shrunken log2 fold change” value is -0.103.

For the sequence RRIRCRPPRLPRPRPRPPYEPRP, the “shrunken log2 fold change” value is -0.306.

As for RRIRVRPPRLPRPRPRPNMAPRP, the “shrunken log2 fold change” value is -0.38.

Regarding RRIRKRPPRLPRPRPRPMCMPRP, the “shrunken log2 fold change” value was -0.169.

With RRIRQRPPRLPRPRPRPNKLPRP, the “shrunken log2 fold change” value is -0.0898.

With RRIRHRPPRLPRPRPRPCVQPRP, the “shrunken log2 fold change” value is -0.131.

As to RRIRPRPPRLPRPRPRPHMDPRP, the “shrunken log2 fold change” value was -0.374.

For the sequence RRIRERPPRLPRPRPRPSARPRP, the “shrunken log2 fold change” value is -0.192.

In the case of RRIRSRPPRLPRPRPRPHILPRP, the “shrunken log2 fold change” value is -0.0674.

In the case of RRIRDRPPRLPRPRPRPADMPRP, the “shrunken log2 fold change” value was -0.119.

With RRIRSRPPRLPRPRPRPPYLPRP, the “shrunken log2 fold change” value is -0.45.

On to RRIRERPPRLPRPRPRPKMIPRP, for which the “shrunken log2 fold change” value is -0.399.

For the sequence RRIRSRPPRLPRPRPRPMIVPRP, the “shrunken log2 fold change” value is -0.377.

In the case of RRIRFRPPRLPRPRPRPPRNPRP, the “shrunken log2 fold change” value was found to be 0.263.

For RRIRNRPPRLPRPRPRPYFDPRP, the “shrunken log2 fold change” value is -0.0504.

Regarding RRIRTRPPRLPRPRPRPFDKPRP, the “shrunken log2 fold change” value is -0.154.

Take RRIRARPPRLPRPRPRPTIKPRP: the “shrunken log2 fold change” value stood at 0.0966.

For RRIRKRPPRLPRPRPRPFADPRP, the “shrunken log2 fold change” value amounted to 0.00902.

Regarding RRIRLRPPRLPRPRPRPIEMPRP, the “shrunken log2 fold change” value was -0.0708.

Consider RRIRMRPPRLPRPRPRPQVNPRP, for which the “shrunken log2 fold change” value was 0.166.

In the case of RRIRNRPPRLPRPRPRPFEMPRP, the “shrunken log2 fold change” value came out at 0.0463.

Take RRIRVRPPRLPRPRPRPRKEPRP: the “shrunken log2 fold change” value was -0.0286.

On to RRIRTRPPRLPRPRPRPSGGPRP, for which the “shrunken log2 fold change” value amounted to 0.863.

For RRIRMRPPRLPRPRPRPNIEPRP, the “shrunken log2 fold change” value came to 0.219.

Regarding RRIRHRPPRLPRPRPRPIQWPRP, the “shrunken log2 fold change” value is -0.01.

Consider RRIRARPPRLPRPRPRPRCNPRP, for which the “shrunken log2 fold change” value amounted to 0.197.

RRIRFRPPRLPRPRPRPGKLPRP: the “shrunken log2 fold change” value was -0.0682.

Consider RRIRLRPPRLPRPRPRPCRRPRP, for which the “shrunken log2 fold change” value was -0.0846.

On to RRIRGRPPRLPRPRPRPYNYPRP, for which the “shrunken log2 fold change” value was -0.129.

As for RRIRTRPPRLPRPRPRPRSQPRP, the “shrunken log2 fold change” value is 1.58.

RRIRKRPPRLPRPRPRPVPTPRP: the “shrunken log2 fold change” value was 0.916.
